The values that follow come from US9376486 (NATIONAL UNIVERSITY OF SINGAPORE, dated 2016).

In assay [1] the target is T1, Dengue virus serotype 1 strain PVP 159 (DENV1/SG/07K3640DK1/2008) E protein, on whole virus (Dengue virus serotype 1, UniProt P27909 281-676).
T1 construct: also called DENV1 E protein

Assay [2] concerns the target T2, Dengue virus serotype 2 (DENV2) E protein, on whole virus (Dengue virus serotype 2, UniProt P29990 281-775).
T2 construct: mature; also called Dengue serotype 2
Kind of assay: sandwich ELISA on live whole virus.

Assay [3] deals with T3, Dengue virus serotype 3 (DENV3) E protein, on whole virus (Dengue virus serotype 3, UniProt P27915 281-773).
T3 construct: mature; also called Dengue serotype 3
Put plainly: sandwich ELISA on live whole virus.

In assay [4] the target is T4, Dengue virus serotype 4 (DENV4) E protein, on whole virus (Dengue virus serotype 4, UniProt P09866 280-774).
T4 construct: mature; also called Dengue serotype 4
Kind of assay: sandwich ELISA on live whole virus.

B1: Fab HM14c10 (Fab, V domains shown)
VH: EVQLVESGGGVVQPGRSLRLSCAASGFSFSSYGMHWVRQAPGKGLEWVAVIWYDGSKTYYGDSVKGRFTISKDNSKKMVNLQMDSLGVEDTAFYYCARGIAGGWAFWGIDLWGQGTLVTVSS
VL: DVVMTQSPGTLSLSPGERATLSCRASQNVYSYLGWYQHKPGRSPRLLIFGVTSRATGVPDRFSGSGSGTDFTLTISRLEPEDFAVYYCQQYAGSAYTFGQGTKVEIKR
notes: also called HM14c10Fab; Fab 14c10
For the molecule B1, the binding result in assay [1] was “binds”.

B2: HM14c10 (recombinant human IgG1 antibody 14c10, clone 8) (antibody, V domains shown)
VH: B1 VH
VL: B1 VL
notes: also called 14c10.8; recombinant IgG1 14c10 antibody
As for B2, the binding result in assay [2], in assay [3] and in assay [4] was “no binding” throughout.
